One experiment concerns the target T1, GLP-1R L142A (Homo sapiens).
T1 chain: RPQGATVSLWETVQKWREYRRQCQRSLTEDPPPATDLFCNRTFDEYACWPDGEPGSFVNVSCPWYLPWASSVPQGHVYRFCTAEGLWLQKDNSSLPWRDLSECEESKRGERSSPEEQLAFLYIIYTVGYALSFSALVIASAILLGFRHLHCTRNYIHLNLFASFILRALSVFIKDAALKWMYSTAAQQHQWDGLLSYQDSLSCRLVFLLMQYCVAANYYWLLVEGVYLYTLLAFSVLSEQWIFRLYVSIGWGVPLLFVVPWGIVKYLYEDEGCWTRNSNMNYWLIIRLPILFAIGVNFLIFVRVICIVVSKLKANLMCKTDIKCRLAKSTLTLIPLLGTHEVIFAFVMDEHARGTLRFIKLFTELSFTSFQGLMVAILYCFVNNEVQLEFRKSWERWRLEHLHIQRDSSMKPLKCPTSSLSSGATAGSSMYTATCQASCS

Another experiment has as its target T2, GLP-1R L141A (Homo sapiens).
T2 chain: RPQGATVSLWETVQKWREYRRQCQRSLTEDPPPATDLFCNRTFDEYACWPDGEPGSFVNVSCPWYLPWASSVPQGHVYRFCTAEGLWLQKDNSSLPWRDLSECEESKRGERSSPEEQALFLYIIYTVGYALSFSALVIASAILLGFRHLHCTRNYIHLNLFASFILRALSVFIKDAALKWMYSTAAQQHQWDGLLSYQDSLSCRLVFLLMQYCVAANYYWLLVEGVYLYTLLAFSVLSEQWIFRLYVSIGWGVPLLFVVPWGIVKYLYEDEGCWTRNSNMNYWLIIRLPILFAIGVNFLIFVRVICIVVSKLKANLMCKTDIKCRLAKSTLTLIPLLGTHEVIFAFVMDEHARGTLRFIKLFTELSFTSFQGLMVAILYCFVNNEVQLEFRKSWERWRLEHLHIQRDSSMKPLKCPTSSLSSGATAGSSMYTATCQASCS

A further experiment concerns the target T3, GLP-1R D198A (Homo sapiens).
T3 chain: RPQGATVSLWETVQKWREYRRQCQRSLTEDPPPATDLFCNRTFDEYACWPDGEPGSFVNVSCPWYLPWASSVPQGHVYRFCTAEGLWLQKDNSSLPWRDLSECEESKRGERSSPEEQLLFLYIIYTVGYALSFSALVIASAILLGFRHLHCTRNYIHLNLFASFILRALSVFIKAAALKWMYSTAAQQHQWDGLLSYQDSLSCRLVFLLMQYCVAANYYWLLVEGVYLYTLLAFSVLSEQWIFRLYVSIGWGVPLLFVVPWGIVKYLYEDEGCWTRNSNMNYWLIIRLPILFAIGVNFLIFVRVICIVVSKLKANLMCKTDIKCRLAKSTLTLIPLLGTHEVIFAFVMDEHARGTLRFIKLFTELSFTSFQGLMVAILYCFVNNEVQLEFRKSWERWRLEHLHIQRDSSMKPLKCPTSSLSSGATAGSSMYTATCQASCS

The next experiment has as its target T4, GLP-1R Q211A (Homo sapiens).
T4 chain: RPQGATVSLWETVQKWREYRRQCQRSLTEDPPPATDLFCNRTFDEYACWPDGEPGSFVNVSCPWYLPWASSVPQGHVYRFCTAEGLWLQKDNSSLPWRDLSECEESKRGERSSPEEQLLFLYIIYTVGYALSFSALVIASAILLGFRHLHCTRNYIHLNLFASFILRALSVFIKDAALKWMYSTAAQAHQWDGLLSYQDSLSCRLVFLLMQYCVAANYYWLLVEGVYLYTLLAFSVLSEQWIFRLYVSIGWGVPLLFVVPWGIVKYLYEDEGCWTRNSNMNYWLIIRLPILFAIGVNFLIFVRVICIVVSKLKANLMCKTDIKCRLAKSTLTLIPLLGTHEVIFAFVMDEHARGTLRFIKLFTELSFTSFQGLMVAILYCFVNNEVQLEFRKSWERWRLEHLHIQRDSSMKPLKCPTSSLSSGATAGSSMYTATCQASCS

The target of the next experiment is T5, GLP-1R Q210A (Homo sapiens).
T5 chain: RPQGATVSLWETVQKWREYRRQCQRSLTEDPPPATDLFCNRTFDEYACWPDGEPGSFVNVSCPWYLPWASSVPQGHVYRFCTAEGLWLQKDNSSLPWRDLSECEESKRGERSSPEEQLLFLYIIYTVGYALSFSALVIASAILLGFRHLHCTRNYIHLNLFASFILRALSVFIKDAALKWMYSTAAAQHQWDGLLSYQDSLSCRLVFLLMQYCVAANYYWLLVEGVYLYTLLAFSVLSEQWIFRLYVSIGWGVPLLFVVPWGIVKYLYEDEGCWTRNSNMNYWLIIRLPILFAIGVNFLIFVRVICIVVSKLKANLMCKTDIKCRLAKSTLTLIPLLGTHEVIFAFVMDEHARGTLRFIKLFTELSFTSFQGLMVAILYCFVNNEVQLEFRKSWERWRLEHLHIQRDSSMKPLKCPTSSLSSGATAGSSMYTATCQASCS

No end group written: not given here.

On to HSQGTFTSDYSKYLDSRRAQDFVQWLMNTKRNRNNIA [oxyntomodulin], for which the IC50 (commonly the concentration needed to halve the response being measured) amounted to 0.0813 µM with GLP-1R L142A; 0.603 µM with GLP-1R L141A; 0.708 µM with GLP-1R D198A; 0.0195 µM with GLP-1R Q211A; 0.0661 µM with GLP-1R Q210A.
In the case of HAEGTFTSDVSSYLEGQAAKEFIAWLVKGR (not fully specified (C-terminus)) [glucagon-like peptide-1], the results for the IC50 with GLP-1R L141A, with GLP-1R D198A and with GLP-1R Q211A were 0.0141 µM, 0.155 µM and 0.00234 µM, respectively.

The record behind these values is publication PMC8748714 (2022).
